# T1: M1 protein (Streptococcus pyogenes, UniProt Q99XV0 1-484)
# T1 sequence: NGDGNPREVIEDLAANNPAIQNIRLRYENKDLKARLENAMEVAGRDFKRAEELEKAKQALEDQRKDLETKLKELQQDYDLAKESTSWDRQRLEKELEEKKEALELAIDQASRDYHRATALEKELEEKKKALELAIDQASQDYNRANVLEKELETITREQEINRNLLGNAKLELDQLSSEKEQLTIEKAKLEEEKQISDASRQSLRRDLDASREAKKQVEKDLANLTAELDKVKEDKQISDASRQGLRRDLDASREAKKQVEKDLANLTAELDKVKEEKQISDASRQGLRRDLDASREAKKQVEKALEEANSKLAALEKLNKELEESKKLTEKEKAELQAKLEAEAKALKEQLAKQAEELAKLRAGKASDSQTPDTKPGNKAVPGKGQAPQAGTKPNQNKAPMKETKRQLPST
# T2: M5 protein (Streptococcus pyogenes, UniProt P02977 43-461)
# T2 sequence: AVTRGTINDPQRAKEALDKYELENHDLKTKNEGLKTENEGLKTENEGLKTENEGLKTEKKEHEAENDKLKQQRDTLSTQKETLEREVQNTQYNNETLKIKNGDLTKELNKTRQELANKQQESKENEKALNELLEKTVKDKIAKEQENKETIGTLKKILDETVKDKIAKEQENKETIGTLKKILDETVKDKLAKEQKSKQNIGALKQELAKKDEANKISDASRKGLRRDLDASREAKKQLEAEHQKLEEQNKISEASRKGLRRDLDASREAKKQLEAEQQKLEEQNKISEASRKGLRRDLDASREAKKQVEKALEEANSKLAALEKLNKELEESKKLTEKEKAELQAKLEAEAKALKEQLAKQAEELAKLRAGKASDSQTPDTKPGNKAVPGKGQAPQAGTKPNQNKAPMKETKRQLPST
# Columns and labels:
# [1] = biological target: M3 protein (Streptococcus pyogenes) (UniProt Q54841)
# [2] = biological target: M3 protein (Streptococcus pyogenes) (UniProt Q54841); remark: listed apart in the source
# [3] = biological target: M3 protein (Streptococcus pyogenes) (UniProt Q54841); remark: listed apart in the source
# M1 protein = biological target: T1, M1 protein; experiment: cell-based or functional assay
# M5 protein = biological target: T2, M5 protein; experiment: cell-based or functional assay
Molecule,"platelet activation: percentage of platelets positive for CD62P, flow cytometry of platelet-rich plasma, median of 10 donors (background 3%) [1]","platelet-monocyte complex formation: percentage of monocytes positive for CD61, flow cytometry of whole blood, median of 10 donors (background 4%) [2]","platelet-neutrophil complex formation: percentage of neutrophils positive for CD61, flow cytometry of whole blood, median of 10 donors (background 18%) [2]","monocyte activation: fold increase of CD11b median fluorescence intensity above background, flow cytometry of whole blood, 10 donors [3]","neutrophil activation: fold increase of CD11b median fluorescence intensity above background, flow cytometry of whole blood, 10 donors [3]","monocyte activation: fold increase of CD11b median fluorescence intensity above background, flow cytometry of whole blood, 10 donors (M1 protein)","neutrophil activation: fold increase of CD11b median fluorescence intensity above background, flow cytometry of whole blood, 10 donors (M1 protein)","monocyte activation: fold increase of CD11b median fluorescence intensity above background, flow cytometry of whole blood, 10 donors (M5 protein)","neutrophil activation: fold increase of CD11b median fluorescence intensity above background, flow cytometry of whole blood, 10 donors (M5 protein)"
human fibrinogen (from UniProt P02671 36-866; P02675 45-491; P02679 27-453) (natural protein),55%,17%,53%,3 fold,5 fold,,,,
human fibrinogen (natural protein) chain 1: GPRVVERHQSACKDSDWPFCSDEDWNYKCPSGCRMKGLIDEVNQDFTNRINKLKNSLFEYQKNNKDSHSLTTNIMEILRGDFSSANNRDNTYNRVSEDLRSRIEVLKRKVIEKVQHIQLLQKNVRAQLVDMKRLEVDIDIKIRSCRGSCSRALAREVDLKDYEDQQKQLEQVIAKDLLPSRDRQHLPLIKMKPVPDLVPGNFKSQLQKVPPEWKALTDMPQMRMELERPGGNEITRGGSTSYGTGSETESPRNPSSAGSWNSGSSGPGSTGNRNPGSSGTGGTATWKPGSSGPGSTGSWNSGSSGTGSTGNQNPGSPRPGSTGTWNPGSSERGSAGHWTSESSVSGSTGQWHSESGSFRPDSPGSGNARPNNPDWGTFEEVSGNVSPGTRREYHTEKLVTSKGDKELRTGKEKVTSGSTTTTRRSCSKTVTKTVIGPDGHKEVTKEVVTSEDGSDCPEAMDLGTLSGIGTLDGFRHRHPDEAAFFDTASTGKTFPGFFSPMLGEFVSETESRGSESGIFTNTKESSSHHPGIAEFPSRGKSSSYSKQFTSSTSYNRGDSTFESKSYKMADEAGSEADHEGTHSTKRGHAKSRPVRDCDDVLQTHPSGTQSGIFNIKLPGSSKIFSVYCDQETSLGGWLLIQQRMDGSLNFNRTWQDYKRGFGSLNDEGEGEFWLGNDYLHLLTQRGSVLRVELEDWAGNEAYAEYHFRVGSEAEGYALQVSSYEGTAGDALIEGSVEEGAEYTSHNNMQFSTFDRDADQWEENCAEVYGGGWWYNNCQAANLNGIYYPGGSYDPRNNSPYEIENGVVWVSFRGADYSLRAVRMKIRPLVTQ chain 2: GHRPLDKKREEAPSLRPAPPPISGGGYRARPAKAAATQKKVERKAPDAGGCLHADPDLGVLCPTGCQLQEALLQQERPIRNSVDELNNNVEAVSQTSSSSFQYMYLLKDLWQKRQKQVKDNENVVNEYSSELEKHQLYIDETVNSNIPTNLRVLRSILENLRSKIQKLESDVSAQMEYCRTPCTVSCNIPVVSGKECEEIIRKGGETSEMYLIQPDSSVKPYRVYCDMNTENGGWTVIQNRQDGSVDFGRKWDPYKQGFGNVATNTDGKNYCGLPGEYWLGNDKISQLTRMGPTELLIEMEDWKGDKVKAHYGGFTVQNEANKYQISVNKYRGTAGNALMDGASQLMGENRTMTIHNGMFFSTYDRDNDGWLTSDPRKQCSKEDGGGWWYNRCHAANPNGRYYWGGQYTWDMAKHGTDDGVVWMNWKGSWYSMRKMSMKIRPFFPQQ chain 3: YVATRDNCCILDERFGSYCPTTCGIADFLSTYQTKVDKDLQSLEDILHQVENKTSEVKQLIKAIQLTYNPDESSKPNMIDAATLKSRKMLEEIMKYEASILTHDSSIRYLQEIYNSNNQKIVNLKEKVAQLEAQCQEPCKDTVQIHDITGKDCQDIANKGAKQSGLYFIKPLKANQQFLVYCEIDGSGNGWTVFQKRLDGSVDFKKNWIQYKEGFGHLSPTGTTEFWLGNEKIHLISTQSAIPYALRVELEDWNGRTSTADYAMFKVGPEADKYRLTYAYFAGGDAGDAFDGFDFGDDPSDKFFTSHNGMQFSTWDNDNDKFEGNCAEQDGSGWWMNKCHAGHLNGVYYQGGTYSKASTPNGYDNGIIWATWKTRWYSMKKTTMKIIPFNRLTIGEGQQHHLGGAKQVRPEHPAETEYDSLYPEDDL,,,,,,7 fold,14 fold,4 fold,9 fold
